Experimental data published in US20230364254A1, “METHODS FOR TREATING CANCERS WITH ANTIBODY DRUG CONJUGATES (ADC) THAT BIND TO 191P4D12 PROTEINS” (priority 2020, published 2023).

Molecular target: T1, 191P4D12 (Homo sapiens, UniProt Q96NY8)
T1 sequence (Q96NY8 32-510): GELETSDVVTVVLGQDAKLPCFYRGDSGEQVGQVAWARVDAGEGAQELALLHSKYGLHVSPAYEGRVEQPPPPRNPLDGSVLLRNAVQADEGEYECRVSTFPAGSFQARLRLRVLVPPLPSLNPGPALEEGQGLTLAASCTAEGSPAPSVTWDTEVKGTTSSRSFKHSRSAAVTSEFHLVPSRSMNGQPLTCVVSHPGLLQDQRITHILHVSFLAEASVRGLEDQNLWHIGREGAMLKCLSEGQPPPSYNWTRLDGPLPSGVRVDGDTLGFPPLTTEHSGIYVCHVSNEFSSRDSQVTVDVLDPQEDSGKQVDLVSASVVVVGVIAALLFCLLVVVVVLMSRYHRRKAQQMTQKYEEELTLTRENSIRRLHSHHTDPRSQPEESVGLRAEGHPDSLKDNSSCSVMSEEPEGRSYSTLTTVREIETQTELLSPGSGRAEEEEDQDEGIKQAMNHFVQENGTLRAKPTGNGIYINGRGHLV
Assay: Analytical and biological characterization studies: comparability of enfortumab vedotin and AGS-22M6E
Description: As described above and in U.S. Pat. No. 8,637,642, AGS-22M6E is an ADC derived from a murine hybridoma cell line. Enfortumab vedotin is a Chinese hamster ovary (CHO) cell line-derived equivalent of AGS-22M6E ADC and is an exemplary product used for human treatment. Enfortumab vedotin has the same amino acid sequence, linker and cytotoxic drug as AGS-22M6E. The comparability between enfortumab vedotin and AGS-22M6E was confirmed through extensive analytical and biological characterization studies, such as binding affinity to 191P4D12, in vitro cytotoxicity, and in vivo antitumor activity.

Substance: enfortumab vedotin: Nectin-4 directed ADC: fully human anti-nectin-4 IgG1 kappa antibody (AGS-22C3) conjugated to MMAE via protease-cleavable maleimidocaproyl valine-citrulline linker
- comparability between enfortumab vedotin and AGS-22M6E (binding affinity to 191P4D12, in vitro cytotoxicity, in vivo antitumor activity): confirmed
